Biological target: folate receptor alpha (FOLR1) (human, UniProt P15328 25-234)
Assay: cell-based or functional assay

folate receptor alpha (FOLR1), sequence (P15328 25-234 limits assumed): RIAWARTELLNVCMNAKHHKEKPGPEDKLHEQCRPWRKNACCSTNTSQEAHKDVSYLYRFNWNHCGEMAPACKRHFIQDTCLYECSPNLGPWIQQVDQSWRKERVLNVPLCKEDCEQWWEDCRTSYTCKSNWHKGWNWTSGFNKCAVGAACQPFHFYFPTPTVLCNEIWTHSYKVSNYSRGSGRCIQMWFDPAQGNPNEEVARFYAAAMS

B1: Conjugate P (FOLR1-directed site-specific antibody-drug conjugate; IgG antibody with VH region SEQ ID NO: 362 and VL region SEQ ID NO: 367, conjugate formula … (antibody, V domains shown)
VH: EVQLVESGGGLVQPGGSLRLSCAASGFNIRTQSIHWVRQAPGKGLEWIGDIFPIDGITDYADSVKGRFTISADTSKNTAYLQMNSLRAEDTAVYYCARGSWSWPSGMDYYLDYWGQGTLVTVSS
VL: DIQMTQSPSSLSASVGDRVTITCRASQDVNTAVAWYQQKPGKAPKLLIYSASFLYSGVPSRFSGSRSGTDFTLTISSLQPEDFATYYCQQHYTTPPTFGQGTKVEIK
modifications: para-azidomethylphenylalanine residues substituting for Y180 and F404 (printed as 'of each VH region'; elsewhere given as heavy chain positions), each linked to the hemiasterlin linker-payload of conjugate formula P (n=4)
- in vitro cytotoxicity IC50 against CBF/GLIS-transduced CB HPSCs (which upregulate FOLR1): 4.2 nM
- in vitro cytotoxicity IC50 against MV4;11 AML cell line engineered to express FOLR1 (MV4;11 FOLR1+): 0.1 nM
